Laboratory results as given in the supplement of paper PMC9170038.

Tested on: MS2 coat protein
Test: apparent KD of MS2 coat protein; designed switch direction (-1 OFF switch, 1 ON switch): -1; higher = weaker reporter binding
Method in brief: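 Designed RNA switches with common flanks were made on Illumina chips by stalled E. coli RNA polymerase. Titration with SNAP-549-labelled MS2 coat protein doubled from 0.7 or 1.5 nM up to 3 µM. Apparent KD is each design's median over clusters after curve-fitting normalised fluorescence.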

[1] = Eterna round: R95, input ligand: FMN 200 uM
[2] = Eterna round: R95, input ligand: microRNA oligo, concentration not stated
[3] = Eterna round: R95, input ligand: none
[4] = input ligand: microRNA oligo, concentration not stated

| Sequence | apparent KD of MS2 coat protein [1] [nM] | apparent KD of MS2 coat protein [2] [nM] | apparent KD of MS2 coat protein [3] [nM] | apparent KD of MS2 coat protein (input ligand: FMN 200 uM) [nM] | apparent KD of MS2 coat protein (input ligand: none) [nM] | apparent KD of MS2 coat protein [4] [nM] |
| --- | --- | --- | --- | --- | --- | --- |
| AGGAAGCAAGGAUAUACGAGGAGAAGGUGUCCAUCUAAAUGACAUGAGGAUCACCCAUGUAGAAGGUGCGAGAA [JR_Exclu2_Sub050] (puzzle: Exclusion 2) | 112 | 47.4 | 34.5 |  |  |  |
| AGGGAGCGAGGAUAUACAGAGUAGGAAACUACUCCCUCAGUACAUGAGGAUCACCCAUGUAGAAGGCGCCCGAA [EX2 A.1] (Eterna round: R97, puzzle: Exclusion 2) |  |  |  | 38 | 23.8 |  |
| AGGGUGGGAGGAUAUCCAAUAUAUGACAUGAGGAUCACCCAUGUUUCCACUCGUACCUCCGGAGAAGGCCCUCCCA [Ex5 #22] (Eterna round: R97, puzzle: Exclusion 5) |  |  |  | 21.5 | 22.1 |  |
| AGGGUUUGAGGAUAUAUCUGGUGGGACAUGAGGAUCACCCAUGUUCAUGUCGUAUCCUCAGUAGAAGGCAGACAGG [Eternabot (Original) Solution 14] (Eterna round: R97, puzzle: Exclusion 5) |  |  |  | 13.2 | 13.4 |  |
| AGGUCACAUGAGGAUCACCCAUGUGAGGAUAUAGACUCAAGAGCUUCGGCUCUCAAGUUUAGAAGGCGCUAUGA [EX1 #51] (Eterna round: R97, puzzle: Exclusion 1) |  |  |  | 25.8 | 26.3 |  |
| AGUAACAGAGGAUAUACUAUUUUAUGUGUUUGUUAUUUUAAACAUGAGGAUCACCCAUGUAGAAGGCUGAAUGA [JMF 100] (puzzle: Exclusion 2) |  | 23.5 |  |  |  |  |
| AGUAACAGAGGAUAUACUGUUUUAUGUGUUUAUUGUUUUGAACAUGAGGAUCACCCAUGUAGAAGGCUGAAUAA [JMF 94] (puzzle: Exclusion 2) |  | 21.7 |  |  |  |  |
| AGUAACCGUCACGAAAGUGAUGGUUACACAAGAAAUGAAACAUGAGGAUCACCCAUGUCCUCAUUUGCUCGUCUUAU [Sensor 3 - 38] (puzzle: Sensor v3, turn-off variant 2) | 176 | 288 | 259 |  |  |  |
| AGUAACUAUCACGAAAGUGAUAGUUACACAAGCAGUGAAACAUGAGGAUCACCCAUGUCCUCAUAUGCUCGUCUUAU [Sensor 3 - 30] (puzzle: Sensor v3, turn-off variant 2) | 119 | 1280 | 114 |  |  |  |
| AGUAAGCUAGGAUAUGCUUUGGGAAAGCCUUCCUUCGAUAAACUUGAGGAUCACCCAAGUAGAAGGAGCUAAAU [jl-ex2.4.48 ViennaUCT mod] (Eterna round: R97, puzzle: Exclusion 2) |  |  |  | 16.7 | 16 |  |
| AGUACUAACACCGUUGUGUUAGUACAAUAAGCUUGUGAAACAUGAGGAUCACCCAUGUCCUCAUAAGCUCGUCUUAU [salish99_TOv2_r3_071] (puzzle: Sensor v3, turn-off variant 2) | 16.3 | 784 | 16.2 |  |  |  |
| AGUACUAACACGAAAGUGUUAGUACAAUAAGCUAGUGGAACAUGAGGAUCACCCAUGUCCUCAUUAGCUCGUCUUAU [Mat - Sensor v3 - Turn-off var 2 - D33] (puzzle: Sensor v3, turn-off variant 2) | 16.3 | 36.6 | 13.4 |  |  |  |
| AGUACUAACACGAAAGUGUUAGUACUAUAAGCUUGUGAAACAUGAGGAUCACCCAUGUCCUCAUAAGCUCGUCUUAU [Mat - Sensor v3 - Turn-off var 2 - D102] (puzzle: Sensor v3, turn-off variant 2) | 17.3 | 780 | 17 |  |  |  |
| AGUACUAACACGAAAGUGUUAGUACUAUAAGUUUGUGUUACAUGAGGAUCACCCAUGUCCUCAUAAGCUCGUCUUGU [Mat - Sensor v3 - Turn-off var 2 - D95] (puzzle: Sensor v3, turn-off variant 2) | 911 | 199 | 626 |  |  |  |
| AGUACUAACACGAAAGUGUUUGUACAAUAAGCUUGUGAAACAUGAGGAUCACCCAUGUCCUCAUAAGCUCGUCUUAU [salish99_TOv2_r3_035] (puzzle: Sensor v3, turn-off variant 2) | 17.5 | 580 | 17.1 |  |  |  |
| AGUACUAACACGAUAGUGUUAGUACUAUAAGCUUGUGUUACAUGAGGAUCACCCAUGUCCUCAUAAGCUCGUCUUGA [Mat - Sensor v3 - Turn-off var 2 - D92] (puzzle: Sensor v3, turn-off variant 2) | 33.3 | 467 | 40.6 |  |  |  |
| AGUACUAACACGUUAGUGUUAGUACAAUAAGCUUGUGAAACAUGAGGAUCACCCAUGUCCUCAUAAGCUCGUCUUAU [salish99_TOv2_r3_056] (Eterna round: R96, puzzle: Sensor v3, turn-off variant 2) |  |  |  | 16 | 17.9 | 466 |

| Sequence | apparent KD of MS2 coat protein [1] [nM] | apparent KD of MS2 coat protein [2] [nM] | apparent KD of MS2 coat protein [3] [nM] | apparent KD of MS2 coat protein (input ligand: FMN 200 uM) [nM] | apparent KD of MS2 coat protein (input ligand: none) [nM] | apparent KD of MS2 coat protein [4] [nM] |
| --- | --- | --- | --- | --- | --- | --- |
| AGUACUAACACGUUAGUGUUAGUACAAUAAGCUUGUGAAACAUGAGGAUCACCCAUGUCCUCAUAAGCUCGUCUUAU [salish99_TOv2_r3_056] (puzzle: Sensor v3, turn-off variant 2) | 16.7 | 645 | 16.1 |  |  |  |
| AGUACUAUCACGAAAGUGAUAGUACAAUAAGCAAGUGAAACAUGAGGAUCACCCAUGUCCUCAUUUGCUCGUCUUAU [JL turnoff v2 74] (Eterna round: R96, puzzle: Sensor v2, turn-off variant 2) |  |  |  | 16.7 | 19.1 | 400 |
| AGUACUAUCACGAAAGUGAUAGUACAAUAAGCAAGUGAAACAUGAGGAUCACCCAUGUCCUCAUUUGCUCGUCUUAU [salish99_TOv2_r3_200again] (puzzle: Sensor v3, turn-off variant 2) | 17.8 | 749 | 17 |  |  |  |
| AGUACUAUGCGUGCUGACAUGCGUAGUGCAGCAGGUGUUACAUGAGGAUCACCCAUGUCCUCAUUUGCUCGUCUUAA [Mat - Sensor v3 - Turn-off var 2 - D16] (puzzle: Sensor v3, turn-off variant 2) | 88 | 115 | 97.6 |  |  |  |
| AGUAGGAGAGGAUAUACAAGAAGUCGAAAGACUUCAACUCAACAUGAGGAUCACCCAUGUAGAAGGCUCCUACA [Omei Ex2 BD A5] (Eterna round: R97, puzzle: Exclusion 2) |  |  |  | 83.3 | 17.9 |  |
| AGUAGUAGUAUCCGAUCCUACAUGAGGAUCACCCAUGUAGCUAGACGUGCACGCGAUGCUCGUCGGACUACCAGAUG [salish99_TOv1_r3_043] (puzzle: Sensor v3, turn-off variant 1) | 48 | 46.9 | 63.4 |  |  |  |
| AGUAGUAGUAUCCGAUCCUACAUGAGGAUCACCCAUGUGGCUAGACGUGCACGCGAUGCUCGUCAGACUACCAGAUG [salish99_TOv1_r3_038] (puzzle: Sensor v3, turn-off variant 1) | 404 | 269 | 506 |  |  |  |
| AGUAGUAGUAUCCGAUCCUACAUGAGGAUCACCCAUGUUGCUAGACGUGCACGCGAUGCUCGUCAGACUACCAGAUG [salish99_TOv1_r3_050] (puzzle: Sensor v3, turn-off variant 1) | 326 | 150 | 157 |  |  |  |
| AGUAGUAGUAUCCGAUCUUACAUGAGGAUCACCCAUGUAUCUAGACGUGCACGCGAUGCUCGUCAGACUACCAGAUG [salish99_TOv1_r3_052] (puzzle: Sensor v3, turn-off variant 1) | 49.3 | 66.3 | 60.1 |  |  |  |
| AGUAUGCGGCAGGAUAUCCAUCCGCGGAAAGGUGGAGAAGGGCUGACAUGAGGAUCACCCAUGUGCGUCCUGUA [salish99_ex6_r4_029] (Eterna round: R97, puzzle: Exclusion 6) |  |  |  | 33.5 | 20.4 |  |
| AGUCGAAAGACAAAUAAAAACAUGAGGAUCACCCAUGUAAUGGGUGAAAACAAGCUCACCGUUCGUCUUAAAGAAAA [JL turnoff v1 57] (Eterna round: R96, puzzle: Sensor v2, turn-off variant) |  |  |  | 607 | 302 | 40.7 |
| AGUCUGCUAGGAUAUACAUGAGGAUCACCCAUGUCUAUCAAUAGACUAUUAACCUGGUGUAGAAGGAGCUUGUA [Onatlacein] (puzzle: Exclusion 3) |  | 11.1 |  |  |  |  |
| AGUGCUAACACGUUGGUGUUAGUACCAUAAGCUUGUGAUACAUGAGGAUCACCCAUGUCCUCAUAAGCUCGUCUUAU [salish99_TOv2_r2_098] (puzzle: Sensor v3, turn-off variant 2) | 30.6 | 508 | 29.4 |  |  |  |
| AGUGUGUGGCAGGAUAUUCCGGUCGUUGGUCGGGAAGAAGGGUCUACAUGAGGAUCACCCAUGUGAGCGGUUGA [Ex6 #50] (Eterna round: R97, puzzle: Exclusion 6) |  |  |  | 489 | 379 |  |
| AGUGUGUUAGGAUAUCGCAUAUGCUGGAGGAGGUGGAGUUACGAGAAGGAACAUGAGGAUCACCCAUGUAGGAC [JR_Exclu4_Sub050] (puzzle: Exclusion 4) |  | 25.7 |  |  |  |  |
| AGUUCACAUGAGGAUCACCCAUGUGAGGAUAUGGAUUCGCUGGCCGUAGCCAGUGGAUCCAGAAGGCGCGUGAU [JL-ex1-4.15] (Eterna round: R97, puzzle: Exclusion 1) |  |  |  | 55.7 | 65.1 |  |
